Source: patent US20180280549A1 (METAFORA BIOSYSTEMS, published 2018)

Key:
[1] = target: T1, ASCT2 (glutamine and other neutral amino acid transporter) (human, UniProt Q15758 1-541); experiment: flow cytometry on pancreatic tumor cell lines (endogenous transporter; ASCT-1/ASCT-2 is the target by Table 1), anti-mouse A647 detection; Capan1 also detected (data not shown)
T1 construct: Endogenous transporter on human pancreatic tumor cell lines; also called human ASCT2
T1 sequence: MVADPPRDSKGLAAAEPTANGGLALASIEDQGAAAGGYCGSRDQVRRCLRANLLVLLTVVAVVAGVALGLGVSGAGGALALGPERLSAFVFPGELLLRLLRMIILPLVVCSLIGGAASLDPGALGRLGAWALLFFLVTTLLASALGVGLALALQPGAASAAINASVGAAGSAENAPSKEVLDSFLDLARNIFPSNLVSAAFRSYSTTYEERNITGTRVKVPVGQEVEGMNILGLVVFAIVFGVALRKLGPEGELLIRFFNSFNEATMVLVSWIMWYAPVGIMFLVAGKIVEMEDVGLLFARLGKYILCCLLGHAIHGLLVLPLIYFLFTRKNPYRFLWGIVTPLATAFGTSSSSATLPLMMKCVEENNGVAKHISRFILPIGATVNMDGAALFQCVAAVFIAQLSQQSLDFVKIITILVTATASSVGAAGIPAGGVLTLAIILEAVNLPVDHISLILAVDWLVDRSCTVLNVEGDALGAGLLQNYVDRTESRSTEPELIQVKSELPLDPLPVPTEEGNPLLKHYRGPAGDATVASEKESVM

[2] = target: T2, ASCT1 (glutamate and neutral amino acid transporter) (human, UniProt P43007 1-532); experiment: as above
T2 construct: Endogenous transporter on human pancreatic tumor cell lines; also called human ASCT1
T2 sequence: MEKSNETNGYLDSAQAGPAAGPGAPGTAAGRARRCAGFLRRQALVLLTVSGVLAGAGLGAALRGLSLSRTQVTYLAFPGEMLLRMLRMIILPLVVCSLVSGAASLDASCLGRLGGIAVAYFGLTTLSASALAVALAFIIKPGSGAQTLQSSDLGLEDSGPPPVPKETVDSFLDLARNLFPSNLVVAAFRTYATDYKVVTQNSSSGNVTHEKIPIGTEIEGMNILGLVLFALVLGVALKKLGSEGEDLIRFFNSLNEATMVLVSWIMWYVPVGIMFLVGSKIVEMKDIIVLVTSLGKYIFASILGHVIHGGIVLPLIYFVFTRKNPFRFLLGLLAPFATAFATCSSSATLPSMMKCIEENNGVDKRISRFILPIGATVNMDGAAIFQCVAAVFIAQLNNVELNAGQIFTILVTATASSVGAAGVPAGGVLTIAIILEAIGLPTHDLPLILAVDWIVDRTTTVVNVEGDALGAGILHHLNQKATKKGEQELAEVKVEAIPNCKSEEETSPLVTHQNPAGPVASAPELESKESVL

B1: HERV-W.RBD.MFC (HERV-W.RBD, receptor-binding domain of the human endogenous retrovirus W envelope glycoprotein, fused to a mouse Fc fragment) (Fc fusion)
chain: APPPCRCMTSSSPYQEFLWRMQRPGNIDAPSYRSLSKGTPTFTAHTHMPRNCYHSATLCMHANTHYWTGKMINPSCPGGLGVTVCWTYFTQTGMSDGGGVQGSVDVPRDCGCKPCICTVPEVSSVFIFPPKPKDVLTITLTPKVTCVVVDISKDDPEVQFSWFVDDVEVHTAQTQPREEQFNSTFRSVSELPIMHQDWLNGKEFKCRVNSAAFPAPIEKTISKTKGRPKAPQVYTIPPPKEQMAKDKVSLTCMITDFFPEDITVEWQWNGQPAENYKNTQPIMDTDGSYFVYSKLNVQKSNWEAGNTFTCSVLHEGLHNHHTEKSLSHSPGK
modifications: I-125 on tyrosine or histidine residues in the in vivo experiment only (IODO-GEN method); unlabelled in flow cytometry
notes: The entry may begin with a signal peptide; also called I-125.HERV-W.RBD.MFC
[1]
  binding result: binds
[2]
  binding result: binds
